Molecular target: the molecule itself
Test: cryo-EM structure

B1: MBP-Vpu full length (HIV-1 Vpu fused to maltose binding protein) (natural protein)
chain: MQPIPIVAIVALVVAIIIAIVVWSIVIIEYRKILRQRKIDRLIDRLIERAEDSGNESEGEISALVEMGVEMGHHAPWDVDDL
- stoichiometry N: 6
